The results in this text go back to US20140120128A1.

Assay in all cases: cell-based or functional assay
The target in assay [1] is human TLR2 expressed on HEK293 cells (human) (UniProt O60603).
For assay [2], the target named is T1, human TLR9 expressed on HEK293 cells (human) (UniProt Q9NR96).
T1 sequence: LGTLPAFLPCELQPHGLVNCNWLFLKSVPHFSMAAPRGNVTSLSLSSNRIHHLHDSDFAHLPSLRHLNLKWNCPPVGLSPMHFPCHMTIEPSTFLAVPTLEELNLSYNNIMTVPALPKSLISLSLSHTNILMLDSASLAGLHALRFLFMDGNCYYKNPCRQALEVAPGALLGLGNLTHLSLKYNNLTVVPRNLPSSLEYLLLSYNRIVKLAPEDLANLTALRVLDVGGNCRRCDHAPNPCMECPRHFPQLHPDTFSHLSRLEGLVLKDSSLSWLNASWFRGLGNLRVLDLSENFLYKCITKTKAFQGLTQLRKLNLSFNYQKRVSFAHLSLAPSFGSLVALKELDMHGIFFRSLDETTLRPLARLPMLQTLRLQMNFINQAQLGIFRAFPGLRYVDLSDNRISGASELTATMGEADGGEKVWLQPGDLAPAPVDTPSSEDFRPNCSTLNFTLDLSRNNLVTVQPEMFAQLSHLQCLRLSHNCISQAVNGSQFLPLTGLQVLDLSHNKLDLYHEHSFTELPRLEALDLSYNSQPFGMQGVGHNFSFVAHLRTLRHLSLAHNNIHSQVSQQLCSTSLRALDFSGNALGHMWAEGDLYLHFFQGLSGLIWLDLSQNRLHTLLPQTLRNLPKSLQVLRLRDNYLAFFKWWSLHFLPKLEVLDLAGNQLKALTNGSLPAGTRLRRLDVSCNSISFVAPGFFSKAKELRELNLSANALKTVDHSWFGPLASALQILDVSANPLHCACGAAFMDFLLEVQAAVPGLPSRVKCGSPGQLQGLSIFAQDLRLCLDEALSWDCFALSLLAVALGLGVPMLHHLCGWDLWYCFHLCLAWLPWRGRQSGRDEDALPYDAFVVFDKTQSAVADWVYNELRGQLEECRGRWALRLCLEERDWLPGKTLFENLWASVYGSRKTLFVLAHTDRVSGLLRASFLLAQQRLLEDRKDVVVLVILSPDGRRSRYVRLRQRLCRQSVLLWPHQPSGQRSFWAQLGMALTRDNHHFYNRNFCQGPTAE

Assay [3] deals with human TLR3 expressed on HEK293 cells (human) (UniProt O15455).
The target of assay [4] is T2, human TLR8 expressed on HEK293 cells (human) (UniProt Q9NR97).
T2 sequence: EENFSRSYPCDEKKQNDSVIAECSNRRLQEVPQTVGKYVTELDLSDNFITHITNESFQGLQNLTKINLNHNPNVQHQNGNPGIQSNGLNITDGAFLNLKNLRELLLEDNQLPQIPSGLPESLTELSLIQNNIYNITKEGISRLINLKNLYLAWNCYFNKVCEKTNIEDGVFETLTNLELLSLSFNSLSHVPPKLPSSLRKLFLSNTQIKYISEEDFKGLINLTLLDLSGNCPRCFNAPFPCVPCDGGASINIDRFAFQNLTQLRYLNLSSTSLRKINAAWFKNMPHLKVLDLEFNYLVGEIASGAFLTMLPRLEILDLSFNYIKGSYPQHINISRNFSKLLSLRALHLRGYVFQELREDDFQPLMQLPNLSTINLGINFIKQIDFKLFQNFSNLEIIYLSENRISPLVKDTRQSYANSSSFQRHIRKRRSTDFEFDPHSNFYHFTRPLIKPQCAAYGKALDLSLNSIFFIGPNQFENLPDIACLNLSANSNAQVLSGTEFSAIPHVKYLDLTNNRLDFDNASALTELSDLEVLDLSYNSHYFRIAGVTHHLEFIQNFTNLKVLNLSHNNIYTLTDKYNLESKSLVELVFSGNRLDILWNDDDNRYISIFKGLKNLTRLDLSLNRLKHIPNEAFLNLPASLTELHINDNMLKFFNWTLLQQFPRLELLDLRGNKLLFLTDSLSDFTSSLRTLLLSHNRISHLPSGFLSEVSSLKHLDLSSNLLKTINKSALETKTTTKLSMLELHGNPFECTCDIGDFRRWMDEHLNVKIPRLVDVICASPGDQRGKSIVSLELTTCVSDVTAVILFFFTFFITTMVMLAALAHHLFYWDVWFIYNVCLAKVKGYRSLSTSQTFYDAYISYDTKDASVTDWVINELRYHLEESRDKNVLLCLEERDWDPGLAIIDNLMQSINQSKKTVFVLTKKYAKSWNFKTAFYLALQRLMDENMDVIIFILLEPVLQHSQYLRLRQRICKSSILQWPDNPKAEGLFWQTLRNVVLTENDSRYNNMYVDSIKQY

Assay [5] addresses human TLR5 expressed on HEK293 cells (human) (UniProt O60602).
Assay [6] deals with human TLR7 expressed on HEK293 cells (human) (UniProt Q9NYK1).
Sequence of human TLR7 expressed on HEK293 cells (human) (Q9NYK1 27-1049): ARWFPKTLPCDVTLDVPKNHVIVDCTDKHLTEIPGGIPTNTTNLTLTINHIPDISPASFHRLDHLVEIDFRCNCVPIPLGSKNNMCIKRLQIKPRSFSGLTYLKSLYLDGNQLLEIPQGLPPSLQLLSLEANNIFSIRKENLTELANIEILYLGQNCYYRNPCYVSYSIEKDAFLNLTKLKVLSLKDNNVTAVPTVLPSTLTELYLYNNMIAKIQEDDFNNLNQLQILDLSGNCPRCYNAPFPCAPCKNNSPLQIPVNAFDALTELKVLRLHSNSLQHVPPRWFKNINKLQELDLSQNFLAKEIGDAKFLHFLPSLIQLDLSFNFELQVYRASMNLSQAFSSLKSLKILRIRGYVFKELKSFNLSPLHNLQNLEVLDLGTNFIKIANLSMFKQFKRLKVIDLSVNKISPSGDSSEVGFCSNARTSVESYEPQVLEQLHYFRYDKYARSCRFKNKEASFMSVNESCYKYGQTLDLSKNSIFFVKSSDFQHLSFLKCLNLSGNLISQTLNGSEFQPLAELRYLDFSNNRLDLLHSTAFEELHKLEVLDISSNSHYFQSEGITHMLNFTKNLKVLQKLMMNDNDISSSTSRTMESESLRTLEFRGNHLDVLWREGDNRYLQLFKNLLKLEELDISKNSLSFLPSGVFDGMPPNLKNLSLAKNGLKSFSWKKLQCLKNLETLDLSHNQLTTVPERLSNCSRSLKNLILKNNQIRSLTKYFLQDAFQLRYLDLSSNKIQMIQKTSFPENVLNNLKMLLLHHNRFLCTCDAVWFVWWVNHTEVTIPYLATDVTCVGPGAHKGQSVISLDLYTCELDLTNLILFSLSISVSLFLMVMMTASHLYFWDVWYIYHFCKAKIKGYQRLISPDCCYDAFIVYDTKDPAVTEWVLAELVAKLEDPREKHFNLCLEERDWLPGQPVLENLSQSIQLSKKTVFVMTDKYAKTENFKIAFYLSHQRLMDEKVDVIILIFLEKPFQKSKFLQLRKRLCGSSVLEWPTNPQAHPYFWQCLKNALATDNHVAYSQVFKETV
For assay [7], the target named is human TLR4 (MD2-CD14) expressed on HEK293 cells (human) (UniProt O00206).
Sequence of human TLR4 (MD2-CD14) expressed on HEK293 cells (human) (O00206 24-839 limits assumed, chain 1 of 3): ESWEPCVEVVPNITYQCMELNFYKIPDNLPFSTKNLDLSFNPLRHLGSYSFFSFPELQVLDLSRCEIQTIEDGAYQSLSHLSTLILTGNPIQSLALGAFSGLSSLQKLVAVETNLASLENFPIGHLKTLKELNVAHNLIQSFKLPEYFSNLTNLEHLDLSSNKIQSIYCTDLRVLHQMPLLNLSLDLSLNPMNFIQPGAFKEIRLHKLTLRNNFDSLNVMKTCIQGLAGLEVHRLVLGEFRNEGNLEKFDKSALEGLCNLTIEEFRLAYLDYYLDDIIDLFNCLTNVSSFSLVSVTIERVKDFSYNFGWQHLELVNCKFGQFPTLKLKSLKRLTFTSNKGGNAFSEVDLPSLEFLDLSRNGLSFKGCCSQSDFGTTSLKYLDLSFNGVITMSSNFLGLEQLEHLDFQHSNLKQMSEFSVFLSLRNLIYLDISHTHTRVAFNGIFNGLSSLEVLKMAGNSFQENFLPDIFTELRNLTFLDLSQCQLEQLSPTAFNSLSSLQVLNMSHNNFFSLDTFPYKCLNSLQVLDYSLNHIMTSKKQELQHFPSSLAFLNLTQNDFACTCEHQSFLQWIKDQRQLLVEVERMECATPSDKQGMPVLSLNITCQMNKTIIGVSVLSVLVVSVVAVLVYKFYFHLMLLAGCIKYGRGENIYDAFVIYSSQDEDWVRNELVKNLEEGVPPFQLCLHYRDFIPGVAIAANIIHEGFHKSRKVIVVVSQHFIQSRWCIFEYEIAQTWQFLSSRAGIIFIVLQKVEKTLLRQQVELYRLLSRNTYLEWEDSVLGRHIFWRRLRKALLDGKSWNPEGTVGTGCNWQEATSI
Sequence of human TLR4 (MD2-CD14) expressed on HEK293 cells (human) (Q9Y6Y9 19-160 limits assumed, chain 2 of 3, further chain): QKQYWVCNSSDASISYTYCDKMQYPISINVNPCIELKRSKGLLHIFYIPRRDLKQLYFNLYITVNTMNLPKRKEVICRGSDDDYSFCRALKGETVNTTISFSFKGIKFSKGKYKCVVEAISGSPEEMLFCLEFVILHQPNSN
Sequence of human TLR4 (MD2-CD14) expressed on HEK293 cells (human) (P08571 20-345 limits assumed, chain 3 of 3, further chain): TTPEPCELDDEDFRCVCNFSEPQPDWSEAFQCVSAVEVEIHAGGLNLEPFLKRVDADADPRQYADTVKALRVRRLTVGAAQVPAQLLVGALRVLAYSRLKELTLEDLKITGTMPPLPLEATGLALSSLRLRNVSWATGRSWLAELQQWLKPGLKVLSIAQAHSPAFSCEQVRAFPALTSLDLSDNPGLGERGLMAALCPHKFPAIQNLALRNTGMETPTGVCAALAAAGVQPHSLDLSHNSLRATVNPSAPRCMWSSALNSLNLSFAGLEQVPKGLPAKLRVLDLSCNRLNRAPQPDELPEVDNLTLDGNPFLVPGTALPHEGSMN

Sequence of human TLR5 expressed on HEK293 cells (human) (O60602 21-858): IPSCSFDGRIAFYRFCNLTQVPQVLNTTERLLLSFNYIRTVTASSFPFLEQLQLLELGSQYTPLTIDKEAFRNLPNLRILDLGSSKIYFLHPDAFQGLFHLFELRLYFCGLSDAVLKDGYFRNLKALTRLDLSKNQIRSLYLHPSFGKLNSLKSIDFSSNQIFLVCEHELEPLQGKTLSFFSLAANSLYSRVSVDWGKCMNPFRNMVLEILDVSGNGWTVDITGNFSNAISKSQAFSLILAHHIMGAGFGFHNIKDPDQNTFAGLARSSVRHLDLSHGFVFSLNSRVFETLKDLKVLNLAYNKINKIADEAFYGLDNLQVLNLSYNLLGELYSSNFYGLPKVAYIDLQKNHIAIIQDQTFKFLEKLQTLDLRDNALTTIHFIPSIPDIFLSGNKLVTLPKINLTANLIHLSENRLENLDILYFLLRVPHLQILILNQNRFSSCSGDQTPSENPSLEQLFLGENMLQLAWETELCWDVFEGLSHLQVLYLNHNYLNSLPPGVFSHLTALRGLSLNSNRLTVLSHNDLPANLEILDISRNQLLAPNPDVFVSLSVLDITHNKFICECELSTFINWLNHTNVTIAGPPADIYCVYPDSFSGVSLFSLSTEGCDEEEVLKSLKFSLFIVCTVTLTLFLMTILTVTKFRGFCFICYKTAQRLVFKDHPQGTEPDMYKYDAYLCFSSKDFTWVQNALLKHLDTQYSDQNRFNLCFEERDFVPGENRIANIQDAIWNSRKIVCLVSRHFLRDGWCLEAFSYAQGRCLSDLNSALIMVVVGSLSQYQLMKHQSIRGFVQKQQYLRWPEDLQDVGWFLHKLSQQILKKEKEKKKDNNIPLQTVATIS
Sequence of human TLR2 expressed on HEK293 cells (human) (O60603 21-784): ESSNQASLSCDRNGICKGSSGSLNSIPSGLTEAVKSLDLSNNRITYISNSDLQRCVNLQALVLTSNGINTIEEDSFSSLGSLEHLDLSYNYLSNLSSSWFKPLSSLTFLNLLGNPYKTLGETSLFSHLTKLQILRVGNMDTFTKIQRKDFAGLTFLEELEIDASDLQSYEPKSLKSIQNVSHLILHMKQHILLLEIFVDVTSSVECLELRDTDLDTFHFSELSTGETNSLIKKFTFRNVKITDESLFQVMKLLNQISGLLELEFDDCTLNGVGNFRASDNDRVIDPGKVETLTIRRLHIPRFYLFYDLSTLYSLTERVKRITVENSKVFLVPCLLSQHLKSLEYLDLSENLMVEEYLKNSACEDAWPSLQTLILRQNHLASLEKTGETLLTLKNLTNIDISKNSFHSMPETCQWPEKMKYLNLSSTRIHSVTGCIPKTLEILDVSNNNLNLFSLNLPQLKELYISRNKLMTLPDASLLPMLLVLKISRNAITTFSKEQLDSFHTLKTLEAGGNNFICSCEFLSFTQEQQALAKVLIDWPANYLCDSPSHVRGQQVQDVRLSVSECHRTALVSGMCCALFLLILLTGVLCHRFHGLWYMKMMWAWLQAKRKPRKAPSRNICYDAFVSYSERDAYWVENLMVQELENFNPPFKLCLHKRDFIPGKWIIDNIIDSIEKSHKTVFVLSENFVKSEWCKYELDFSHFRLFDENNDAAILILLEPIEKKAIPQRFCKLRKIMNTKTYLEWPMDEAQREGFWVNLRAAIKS

Consider “wild type YscF (from UniProt O68691 1-87)”, for which the SEAP reporter expression in HEK293 cells, screening 1 in assay [1] worked out at 0.283; in assay [2], 0.075; in assay [3], 0.1; in assay [4] it was 0.096; in assay [5], 0.136; in assay [6], 0.095. In assay [7], this substance had an SEAP reporter expression in HEK293 cells, screening 1 of 0.98. The SEAP reporter expression in HEK293 cells, screening 2 in assay [1] stood at 0.272; in assay [2], 0.074; in assay [3], 0.093; in assay [4] it was 0.095; in assay [5], 0.139; in assay [6] it was 0.094. This substance came in with an SEAP reporter expression in HEK293 cells, screening 2 in assay [7] of 0.861.
